Literature values in article PMC9256959.

Molecular target: AMH mature ligand mature domain (Homo sapiens) (UniProt P03971)

Kd: 0.4 pM
Substance: AMH prodomain prodomain (from UniProt P03971)
